{"source": "the RNAGym collection of RNA variant scans (doi:10.7554/elife.80360)", "parents": {"B1": {"name": "HDV Ribozyme (parent)", "chain": "GGCCGGCAUGGUCCCAGCCUCCUCGCUGGCGCCGGCUGGGCAACAUUCCGAGGGGACCGUCCCCUCGGUAAUGGCGAAUGGGACCCA"}}}
{"variants_of": "B1", "assay": "self-cleavage, relative activity (ratio to wild type); higher = more cleavage; co-transcriptional"}
{"variant": "G40A C85G", "self-cleavage": 0.807}
{"variant": "G6A G31A", "self-cleavage": 0.0992}
{"variant": "C3G C22G", "self-cleavage": 0}
{"variant": "U12A A71U", "self-cleavage": 0.262}
{"variant": "U12A G40C", "self-cleavage": 0.219}
{"variant": "C19G U23A", "self-cleavage": 0}
{"variant": "C22G G29U", "self-cleavage": 0.217}
{"variant": "G40U U46A", "self-cleavage": 0.364}
{"variant": "U12C C84A", "self-cleavage": 0.222}
{"variant": "G38U A87C", "self-cleavage": 0.231}
{"variant": "G31C C33G", "self-cleavage": 0.0852}
{"variant": "C22U G34C", "self-cleavage": 0.0852}
{"variant": "G35A A83U", "self-cleavage": 0.507}
{"variant": "U9C C15A", "self-cleavage": 0.748}
{"variant": "C24U G81A", "self-cleavage": 0.185}
{"variant": "C14U C64A", "self-cleavage": 0.939}
{"variant": "C41G U46C", "self-cleavage": 0.297}
{"variant": "G2C A70G", "self-cleavage": 0}
{"variant": "G31U G67C", "self-cleavage": 0.245}
{"variant": "C32U G53C", "self-cleavage": 0.846}
{"variant": "C7G U37A", "self-cleavage": 0.147}
{"variant": "G2U A45C", "self-cleavage": 0}
{"variant": "U23C U46G", "self-cleavage": 0.739}
{"variant": "A42G A43U", "self-cleavage": 0.185}
{"variant": "C3G A45U", "self-cleavage": 0.299}
{"variant": "G10U C62G", "self-cleavage": 0.641}
{"variant": "C62A C63U", "self-cleavage": 0.831}
{"variant": "C4A C26G", "self-cleavage": 0.348}
{"variant": "C24G G39U", "self-cleavage": 0.0314}
{"variant": "A8C A78G", "self-cleavage": 0.35}
{"variant": "G28U G67A", "self-cleavage": 0.164}
{"variant": "G34C C62A", "self-cleavage": 0.162}
{"variant": "C3U C19U", "self-cleavage": 0.126}
{"variant": "A45C C75G", "self-cleavage": 0.237}
{"variant": "U20A C44G", "self-cleavage": 0.111}
{"variant": "A51U C62U", "self-cleavage": 1.09}
{"variant": "C21A U65C", "self-cleavage": 0.0583}
{"variant": "G1U C44G", "self-cleavage": 0.271}
{"variant": "G25A A43G", "self-cleavage": 0.35}
{"variant": "C41G G55U", "self-cleavage": 0.86}
{"variant": "G5A C62U", "self-cleavage": 0.16}
{"variant": "A43G A71G", "self-cleavage": 0.68}
{"variant": "G2A G81C", "self-cleavage": 0.115}
{"variant": "C48G G67U", "self-cleavage": 0.972}
{"variant": "C49A U72G", "self-cleavage": 0.443}
{"variant": "G38U G80U", "self-cleavage": 0.0802}
{"variant": "U20G C75A", "self-cleavage": 0.0978}
{"variant": "G29C C36G", "self-cleavage": 0.0536}
{"variant": "G25A C49G", "self-cleavage": 0.0755}
{"variant": "C41A G50U", "self-cleavage": 0.886}
{"variant": "C26G G67A", "self-cleavage": 0.696}
{"variant": "A16C C41U", "self-cleavage": 0.806}
{"variant": "C21G U72A", "self-cleavage": 0.0723}
{"variant": "C14A U79A", "self-cleavage": 0.369}
{"variant": "U23G G38C", "self-cleavage": 0.095}
{"variant": "C63A U79C", "self-cleavage": 0.455}
{"variant": "G2C C85A", "self-cleavage": 0.0287}
{"variant": "G2A A77G", "self-cleavage": 0.141}
{"variant": "U20G G52A", "self-cleavage": 0.499}
{"variant": "U72C A87U", "self-cleavage": 0.595}
{"variant": "A8G U12A", "self-cleavage": 0}
{"variant": "G10A G81U", "self-cleavage": 0.0468}
{"variant": "G40U G73C", "self-cleavage": 0.166}
{"variant": "C3U G54C", "self-cleavage": 0.636}
{"variant": "G25A C66U", "self-cleavage": 0.338}
{"variant": "C44G A56C", "self-cleavage": 0.745}
{"variant": "A51C C66U", "self-cleavage": 0.974}
{"variant": "U9C G25A", "self-cleavage": 0.277}
{"variant": "A51C G81U", "self-cleavage": 0.38}
{"variant": "U37A G68A", "self-cleavage": 0.381}
{"variant": "U60C C62G", "self-cleavage": 1.07}
{"variant": "U9C A83U", "self-cleavage": 0.525}
{"variant": "A42G A71U", "self-cleavage": 0.502}
{"variant": "G25A A71C", "self-cleavage": 0.185}
{"variant": "G10U A77U", "self-cleavage": 0.174}
{"variant": "G25U C84G", "self-cleavage": 0.17}
{"variant": "C48U C57G", "self-cleavage": 0.798}
{"variant": "G1C C41U", "self-cleavage": 0.229}
{"variant": "U27A G40A", "self-cleavage": 0.886}
{"variant": "G73U A78G", "self-cleavage": 0.332}
{"variant": "G31C C33A", "self-cleavage": 0.0875}
{"variant": "C18A G54A", "self-cleavage": 0.0779}
{"variant": "G2A A45G", "self-cleavage": 0.0779}
{"variant": "A56G C85A", "self-cleavage": 0.95}
{"variant": "U27G C75U", "self-cleavage": 0.138}
{"variant": "G40C C62G", "self-cleavage": 0}
{"variant": "G11A A56U", "self-cleavage": 0.487}
{"variant": "C26A G38C", "self-cleavage": 0.122}
{"variant": "C3A C62U", "self-cleavage": 0.57}
{"variant": "G35A A51U", "self-cleavage": 0.496}
{"variant": "U69A A78C", "self-cleavage": 0.208}
{"variant": "U20C G34A", "self-cleavage": 0.0504}
{"variant": "G28A C57G", "self-cleavage": 0}
{"variant": "A45G A87G", "self-cleavage": 0.868}
{"variant": "A56U U72C", "self-cleavage": 0.489}
{"variant": "G11C A45C", "self-cleavage": 0.116}
{"variant": "C48U G52A", "self-cleavage": 0.931}
{"variant": "C21A C24A", "self-cleavage": 0}
{"variant": "A8U U27A", "self-cleavage": 0.578}
{"variant": "G25A G52U", "self-cleavage": 0.169}
{"variant": "U37A C84A", "self-cleavage": 0.128}
{"variant": "G6U U60A", "self-cleavage": 0.571}
{"variant": "C14U G54A", "self-cleavage": 1.04}
{"variant": "U23A G73C", "self-cleavage": 0.554}
{"variant": "C3U G55A", "self-cleavage": 0.763}
{"variant": "G31U A70U", "self-cleavage": 0.365}
{"variant": "C13U C85A", "self-cleavage": 0.475}
{"variant": "G55U A70U", "self-cleavage": 1.02}
{"variant": "G59A U60G", "self-cleavage": 0.956}
{"variant": "G38A C86U", "self-cleavage": 0.138}
{"variant": "G25C G38A", "self-cleavage": 0.259}
{"variant": "C30G A77G", "self-cleavage": 0.189}
{"variant": "G5C A71C", "self-cleavage": 0.0639}
{"variant": "C24U U79G", "self-cleavage": 0.244}
{"variant": "G54A C63G", "self-cleavage": 0.816}
{"variant": "C32G G55A", "self-cleavage": 0.0841}
{"variant": "C18G A77U", "self-cleavage": 0}
{"variant": "G38C U79G", "self-cleavage": 0}
{"variant": "U27A G38U", "self-cleavage": 0.0426}
{"variant": "U27A U72A", "self-cleavage": 0.266}
{"variant": "G35C U72C", "self-cleavage": 0.156}
{"variant": "C3U U72A", "self-cleavage": 0.684}
{"variant": "C7G G38C", "self-cleavage": 0.0594}
{"variant": "C4U C33G", "self-cleavage": 0}
{"variant": "A83C C85U", "self-cleavage": 0.268}
{"variant": "C15G C18A", "self-cleavage": 0.0997}
{"variant": "C18U U79A", "self-cleavage": 0.178}
{"variant": "U37C A56U", "self-cleavage": 1.09}
{"variant": "A8U G53A", "self-cleavage": 0.665}
{"variant": "G39C A77U", "self-cleavage": 0.121}
{"variant": "A42C C44A", "self-cleavage": 0.285}
{"variant": "G34A A45G", "self-cleavage": 0.199}
{"variant": "U47C A70G", "self-cleavage": 1.08}
{"variant": "C33U C84A", "self-cleavage": 0.65}
{"variant": "C48G G74U", "self-cleavage": 0.509}
{"variant": "G34C G38C", "self-cleavage": 0.122}
{"variant": "A16G G50C", "self-cleavage": 0.95}
{"variant": "A45C U69G", "self-cleavage": 0.974}
{"variant": "U20C G74A", "self-cleavage": 0.125}
{"variant": "G34A A78G", "self-cleavage": 0.157}
{"variant": "U27C C48G", "self-cleavage": 0.831}
{"variant": "U9G U23G", "self-cleavage": 0.95}
{"variant": "U20C C58U", "self-cleavage": 0}
{"variant": "A16G C22U", "self-cleavage": 0.853}
{"variant": "C24A C84A", "self-cleavage": 0.787}
{"variant": "C44U A71C", "self-cleavage": 0.851}
{"variant": "C36U A43U", "self-cleavage": 0.095}
{"variant": "G6U C33A", "self-cleavage": 0.0332}
{"variant": "G73A G80U", "self-cleavage": 0.153}
{"variant": "G17C C32A", "self-cleavage": 0}
{"variant": "C22G A42G", "self-cleavage": 0}
{"variant": "C19G A45U", "self-cleavage": 0.0396}
{"variant": "C19G G40C", "self-cleavage": 0.102}
{"variant": "C7G U12C", "self-cleavage": 0.111}
{"variant": "C3A A43G", "self-cleavage": 0.0821}
{"variant": "C24U C49A", "self-cleavage": 0.739}
{"variant": "C58G G73A", "self-cleavage": 0.406}
{"variant": "C13A A16G", "self-cleavage": 0.293}
{"variant": "C19A A71G", "self-cleavage": 0.136}
{"variant": "G11U G28C", "self-cleavage": 0.0992}
{"variant": "G10U G34A", "self-cleavage": 0.259}
{"variant": "G6U U60G", "self-cleavage": 0.346}
{"variant": "C4A C49U", "self-cleavage": 0.282}
{"variant": "C18U A43U", "self-cleavage": 0.138}
{"variant": "C18A C22G", "self-cleavage": 0.0811}
{"variant": "G10A G55U", "self-cleavage": 0.698}
{"variant": "C33G U69C", "self-cleavage": 0.277}
